Measured values taken from article PMC4820727.

How the values were obtained:
Assay in all cases: flow cytometry on cells; Adh adhesion to 293T cells displaying the candidate protein from pDisplay; adhesion rate compared with the control group
[1] = target: OR5M11 displayed on the surface of 293T cells (pDisplay) (pig (protein identified from porcine alveolar macrophages; source of the cDNA not stated))
[2] = target: CARD displayed on the surface of 293T cells (pDisplay) (pig (protein identified from porcine alveolar macrophages; source of the cDNA not stated))
[3] = target: RAB14 displayed on the surface of 293T cells (pDisplay) (pig (protein identified from porcine alveolar macrophages; source of the cDNA not stated)) (UniProt Q52NJ6)
Sequence of UniProt Q52NJ6 (Q52NJ6 whole entry): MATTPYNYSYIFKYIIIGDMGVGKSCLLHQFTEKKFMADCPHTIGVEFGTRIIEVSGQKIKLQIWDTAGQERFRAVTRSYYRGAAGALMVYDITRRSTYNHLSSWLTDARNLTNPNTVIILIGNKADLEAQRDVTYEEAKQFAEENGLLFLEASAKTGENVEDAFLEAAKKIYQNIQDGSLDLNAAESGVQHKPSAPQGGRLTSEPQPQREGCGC

[4] = target: RAB1B displayed on the surface of 293T cells (pDisplay) (pig (protein identified from porcine alveolar macrophages; source of the cDNA not stated)) (UniProt Q06AU7)
Sequence of UniProt Q06AU7 (Q06AU7 whole entry): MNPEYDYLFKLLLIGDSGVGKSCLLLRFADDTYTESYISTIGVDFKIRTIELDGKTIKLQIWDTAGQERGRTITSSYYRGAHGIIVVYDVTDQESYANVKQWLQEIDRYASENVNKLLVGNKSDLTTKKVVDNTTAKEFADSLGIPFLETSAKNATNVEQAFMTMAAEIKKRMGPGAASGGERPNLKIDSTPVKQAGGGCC

Measured: fold increase of the adhesion rate over the control group

Adh, the 68-612 aa head domain of the trimeric autotransporter adhesin Apa1 of Actinobacillus pleuropneumoniae (domain or fragment)
> 3 fold: all assays above
